# T1: chymase (Homo sapiens, UniProt P23946 P23946:22-247)
# T1 sequence: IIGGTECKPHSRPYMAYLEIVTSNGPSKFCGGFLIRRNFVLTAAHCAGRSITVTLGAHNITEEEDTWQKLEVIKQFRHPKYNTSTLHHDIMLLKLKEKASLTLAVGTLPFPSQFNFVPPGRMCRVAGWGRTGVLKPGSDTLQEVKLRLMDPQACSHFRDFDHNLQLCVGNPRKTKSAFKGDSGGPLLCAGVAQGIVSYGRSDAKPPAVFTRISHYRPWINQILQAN
# T2: chymase (native, human skin mast cell) (Homo sapiens, UniProt P23946 P23946:22-247)
# T2 sequence: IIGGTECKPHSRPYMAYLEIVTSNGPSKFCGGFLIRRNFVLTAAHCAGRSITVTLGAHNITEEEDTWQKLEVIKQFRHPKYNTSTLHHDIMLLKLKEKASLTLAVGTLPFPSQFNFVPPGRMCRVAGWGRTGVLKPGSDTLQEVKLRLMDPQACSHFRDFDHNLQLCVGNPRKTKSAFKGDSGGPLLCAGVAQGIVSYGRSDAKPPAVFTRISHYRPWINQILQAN
# T3: chymase (recombinant) (UniProt P23946 P23946:22-247)
# T3 sequence: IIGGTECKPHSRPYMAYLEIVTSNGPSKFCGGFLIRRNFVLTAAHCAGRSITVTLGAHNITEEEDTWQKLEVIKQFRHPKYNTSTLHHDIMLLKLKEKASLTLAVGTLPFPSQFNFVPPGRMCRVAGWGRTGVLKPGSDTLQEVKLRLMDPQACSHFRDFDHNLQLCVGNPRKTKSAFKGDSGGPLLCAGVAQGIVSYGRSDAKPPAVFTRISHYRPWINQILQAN
# Tests used:
# [1] = target: T1, chymase; assay: inhibition; angiotensin I; recombinant 0.397; conditions: tags: human skin mast cell, Calbiochem
# Experimental: (§1) The total volume of solution for an enzyme reaction in the assay was set to 50 μL, and the reaction was performed in solution C buffer. First, 0.3-0.75 ng of chymase (recombinant, (manufactured by SIGMA) or native (manufactured by Calbiochem)) was diluted with solution C to give 5 μL thereof. Here, the recombinant is chymase expressed by yeast, and the native is chymase purified from human skin mast cell. The nucleic acid was serially diluted with solution C at a concentration of 0.0027-2 μM to give 25 μL thereof. The chymase solution (5 μL) and the nucleic acid solution (25 μL) were mixed, and the mixture was incubated at 37° C. for 5 min. […] The whole mixture was centrifuged at 4° C., 14000 rpm for 10 min, and the supernatant (30 μL) was used for the next fluorescence induction reaction.
# (§2) The above-mentioned supernatant (30 μL) was added to a 96 well plate (black, manufactured by Costar), a solution (15 μL) of 2% o-phthalaldehyde (manufactured by SIGMA) in methanol and 0.3M NaOH solution (170 μL) were added to each well, and the mixture was incubated at room temperature for 10 min. […] The plate was set on a microplate reader SpectraMax190 (manufactured by Molecular device) and the fluorescence intensity was measured at an excitation wavelength of 355 nm and a fluorescence wavelength of 460 nm.
# [2] = target: T1, chymase; assay: inhibition; Suc-AAPF-MCA, 37 C, solution C; conditions: tags: recombinant, expressed in yeast, SIGMA
# Experimental: (§3) Here, Suc is a protecting succinyl group, and MCA is a 4-methylcoumaryl-7-amide group; upon cleavage of the C-terminal side of phenylalanine, AMC (7-amino-4-methyl-coumarine) is released. By detecting the fluorescence of this AMC, the enzyme activity of chymase can be determined. The assay was performed using a 96-well plate (F16 Black Maxisorp Fluoronunc, manufactured by Nunc), with a reaction mixture volume of 100 μL, in solution C as a buffer solution. First, each nucleic acid was serially diluted to 0.0027-2 μM concentrations in solution C to obtain 50 μL solutions. After 10 μL of the 1 mM substrate prepared in solution C was added thereto, the plate was set to the microplate reader SpectraMax190 (manufactured by Molecular Devices Corporation), and incubated at 37° C. for 5 minutes. Separately, 0.05 μg (or 0.005 μg) of chymase (recombinant, manufactured by SIGMA) was diluted in solution C to obtain a 40 μL chymase solution, and incubated at 37° C. for 5 minutes. The chymase solution was added to the mixture of the nucleic acid and substrate to initiate an enzyme reaction. The final chymase concentration in the reaction mixture was 16.7 nM (or 1.67 nM), the final substrate concentration being 100 μM. The plate containing the reaction mixture was set to the microplate reader SpectraMax190 (manufactured by Molecular Devices Corporation), and examined for time-dependent changes in the fluorescence intensity at 37° C. for 5 minutes (or 30 minutes) (excitation wavelength 380 nm, detection wavelength 460 nm). A linear approximation of the increase in the fluorescence of the AMC released from the substrate by chymase activity was generated, and its slope was taken as the initial velocity […]. For control, samples were treated and analyzed in the same manner in two cases: use of a 30N or 40N (a nucleotide of 30 or 40 consecutive bases represented by N; N is A, G, C or T) nucleic acid pool (negative control), and use of chymostatin, a known chymotrypsin-like serine protease inhibitor (positive control). Taking the initial reaction velocity without the nucleic acid and inhibitor (V_0) as a 100% enzyme activity, the inhibitory rate of each test substance was calculated using the following equation: […]
# (§4) The chymase inhibitory activity was measured in the same manner as in Example 3.
# [3] = target: T1, chymase; assay: inhibition; angiotensin I; recombinant 0.237; conditions: tags: human skin mast cell, Calbiochem
# [4] = target: T1, chymase; assay: inhibition; angiotensin I; recombinant 0.119; conditions: tags: human skin mast cell, Calbiochem
# Experimental: as §1, §2
# [5] = target: T1, chymase; assay: inhibition; angiotensin I; recombinant 0.207; conditions: tags: human skin mast cell, Calbiochem
# Experimental: as §1, §2
# [6] = target: T2, chymase (native, human skin mast cell); assay: inhibition; angiotensin I substrate; recombinant 0.235 uM; conditions: tags: Calbiochem, stem-loop (MFOLD)
# Experimental: as §1, §2
# [7] = target: T3, chymase (recombinant); assay: inhibition; SPR ++; 0.027 uM in Table 6; conditions: tags: SIGMA, expressed in yeast; stem-loop (MFOLD)
# Experimental: (§5) Here, Suc is a protecting succinyl group, and MCA is a 4-methylcoumaryl-7-amide group; upon cleavage of the C-terminal side of phenylalanine, AMC (7-amino-4-methyl-coumarine) is released. By detecting the fluorescence of this AMC, the enzyme activity of chymase can be determined. The assay was performed using a 96-well plate (F16 Black Maxisorp Fluoronunc, manufactured by Nunc), with a reaction mixture volume of 100 μL, in solution C as a buffer solution. First, each nucleic acid was serially diluted to 0.0027-2 μM concentrations in solution C to obtain 50 μL solutions. After 10 μL of the 1 mM substrate prepared in solution C was added thereto, the plate was set to the microplate reader SpectraMax190 (manufactured by Molecular Devices Corporation), and incubated at 37° C. for 5 minutes. […] The plate containing the reaction mixture was set to the microplate reader SpectraMax190 (manufactured by Molecular Devices Corporation), and examined for time-dependent changes in the fluorescence intensity at 37° C. for 5 minutes (or 30 minutes) (excitation wavelength 380 nm, detection wavelength 460 nm). A linear approximation of the increase in the fluorescence of the AMC released from the substrate by chymase activity was generated, and its slope was taken as the initial velocity ($Vmax$). […]
# Chymase inhibitory activity was determined in the same manner as Example 3.
# [8] = target: T1, chymase; assay: inhibition; angiotensin I; recombinant 0.456; conditions: tags: human skin mast cell, Calbiochem
# Experimental: as §1, §2
# [9] = target: T3, chymase (recombinant); assay: inhibition; Suc-AAPF-MCA, solution C, 37 C; SPR ++; conditions: tags: SIGMA, expressed in yeast
# Experimental: as §5
# [10] = target: T2, chymase (native, human skin mast cell); assay: inhibition; angiotensin I substrate, solution C, 37 C; recombinant 0.003 uM; conditions: tags: Calbiochem
# Experimental: as §1, §2
# [11] = target: T1, chymase; assay: inhibition; angiotensin I; recombinant 0.274; conditions: tags: human skin mast cell, Calbiochem
# Experimental: as §1, §2
# [12] = target: T1, chymase; assay: inhibition; angiotensin I; recombinant 0.108; conditions: tags: human skin mast cell, Calbiochem
# Experimental: as §1, §2
# [13] = target: T3, chymase (recombinant); assay: SPR; stronger than 30N; solution C; chymase preparation for SPR not specified; conditions: tags: SIGMA, expressed in yeast
# Experimental: The binding activities against chymase of the nucleic acids shown by SEQ ID NO: 4-20 and 22-34 were determined by the surface plasmon resonance method using Biacore T100 (manufactured by GE Healthcare). The sensor chip used was the SA chip, which had streptavidin immobilized thereon. Bound thereto was about 1500 RU of a 16-nucleotide Poly dT with biotin bound to the 5' end thereof. […] 20 μL of chymase for analyte, prepared at 0.2 μM, was injected. Solution A was used as a running buffer.
# The binding activities against chymase of the nucleic acids shown by SEQ ID NO: 38-48 were evaluated by the surface plasmon resonance method. In the evaluations for SEQ ID NO: 38-48, measurements were taken in the same manner as Example 1. Solution C was used as a running buffer.
# [14] = target: T3, chymase (recombinant); assay: inhibition; SPR ++; conditions: tags: SIGMA, expressed in yeast
# Experimental: as §3, §4
# [15] = target: T2, chymase (native, human skin mast cell); assay: inhibition; angiotensin I substrate; recombinant 0.037 uM; conditions: tags: Calbiochem
# Experimental: as §1, §2
# [16] = target: T3, chymase (recombinant); assay: inhibition; SPR ++; conditions: tags: SIGMA, expressed in yeast; remark: listed apart in the source
# Experimental: as §3
# [17] = target: T2, chymase (native, human skin mast cell); assay: inhibition; angiotensin I substrate; recombinant 0.041 uM; conditions: tags: Calbiochem
# Experimental: as §1, §2
# [18] = target: T1, chymase; assay: inhibition; angiotensin I; recombinant 0.446; conditions: tags: human skin mast cell, Calbiochem
# Experimental: as §1, §2
# [19] = target: T1, chymase; assay: inhibition; angiotensin I; recombinant 0.022; conditions: tags: human skin mast cell, Calbiochem
# Experimental: as §1, §2
# [20] = target: T1, chymase; assay: inhibition; angiotensin I; recombinant 0.055; conditions: tags: human skin mast cell, Calbiochem
# Experimental: as §1, §2
# [21] = target: T1, chymase; assay: inhibition; angiotensin I; recombinant 0.354; conditions: tags: human skin mast cell, Calbiochem
# Experimental: as §1, §2
# [22] = target: T3, chymase (recombinant); assay: inhibition; SPR not determined; conditions: tags: SIGMA, expressed in yeast
# Experimental: as §5
# The inhibitory activity on chymase was measured in the same manner as in Example 3.
# [23] = target: T1, chymase; assay: inhibition; angiotensin I; recombinant 0.361; conditions: tags: human skin mast cell, Calbiochem
# Experimental: as §1, §2
binder,measurement,setting,value
"UAACUAUGGUUAGAUAGAGUUAAAAACCAUAGAAGA (ssRNA, 2'-F U and C) [SEQ 54]",IC50,[1],614 nM
"GGGUUAGAUAGAGUUAAAAACCC (ssRNA, 2'-F U and C; 2'-OMe 1-3,7,8,10,13,16-20; PS 5-6) [56(22)]",IC50,[2],52 nM
same,IC50,[3],563 nM
"GGGUUAGAUAGAGUUAAAAACCC (ssRNA, 2'-F U and C; 2'-OMe 1-3,7,8,10,13,16-20; PS 6-7) [56(23)]",IC50,[4],360 nM
same,IC50,[2],32 nM
"GGGUUAGAUAGAGUUAAAAACCC (ssRNA, 2'-F U and C; 5' and 3' idT) [56(1)]",IC50,[5],404 nM
"GGGUUAGAUAGAGUUAAAAACCC (ssRNA, 2'-F pyrimidines) [SEQ 56]",IC50,[6],508 nM
same,IC50,[7],46 nM
"GGGUUAGAUAGAGUUAAAAACCC (ssRNA, 2'-F U and C; 5' PEG 40 kDa; 3' idT)",IC50,[8],613 nM
"SEQ 4 (ssRNA, 2'-F pyrimidines) RNA: GGGACGGUAGGAAUUCGUCCAUUCUACAGAUAGAGAUAAAGUAGAAUUUAACAAAACAUAGAAGAGCGGCCGC",IC50,[9],49 nM
same,IC50,[10],31 nM
"GGCAGAUAGAGUUAAAGCC (ssRNA, 2'-F U and C) [SEQ 65]",IC50,[11],878 nM
"GGGUUAGAUAGAGUUAAAAACCC (ssRNA, 2'-F U and C; PS 5-6) [56(18)]",IC50,[12],174 nM
"SEQ 39 (ssRNA, 2'-F pyrimidines) RNA: GGGAGCAGGAGAGAGGUCAGAUGGUUACGGAUAGAGUUAAGGUAACGGUACGGCCUAUGCGUGCUAGUGUGA",binding result,[13],binds
"GGGTTAGAUAGAGTUAAAAACCC (mixed, idT-G(M)G(M)G(M)ttAsG(M)aU(F)A(M)GAG(M)tU(F)A(M)A(M)A(M)A(M)A(M)ccc-idT (lower case DNA, s=PS)) [72(2)]",IC50,[14],14 nM
same,IC50,[15],76 nM
"SEQ 13 (ssRNA, 2'-F pyrimidines) RNA: GGGACGGUAGGAAUUCCGCAACCAUCCCGUAACUAUGGUUAGAUAGAGUUAAAAACCAUAGAAGAGCGGCCGC",IC50,[16],58 nM
same,IC50,[17],74 nM
"GGGUAACUAUGGUUAGAUAGAGUUAAAAACCAUAGAAGACCC (ssRNA, 2'-F U and C) [SEQ 53]",IC50,[18],764 nM
"SEQ 14 (ssRNA, 2'-F U and C) RNA: GGGACGGUAGGAAUUCUCGUUCCUGACAGCAUUUGAGAUAGAUUUAAACAAACGCACAUAGAAGAGCGGCCGC",IC50,[19],63 nM
"GGGUUAGAUAGAGUUAAAAACCC (ssRNA, 2'-F U and C; PS 6-7) [56(19)]",IC50,[20],130 nM
"CUAUGGUUAGAUAGAGUUAAAAACCAUAG (ssRNA, 2'-F U and C) [SEQ 55]",IC50,[21],606 nM
"GGGUUAGAUAGAGUUAAAAACCC (ssRNA, 2'-F pyrimidines; 5' 40 kDa branched PEG; 3' idT)",IC50,[22],58 nM
"GGGUUAGAUAGAGUUAAAAACCC (ssRNA, 2'-F U and C; 2'-OMe 1-3,7,8,10,13,16-20) [56(21)]",IC50,[2],45 nM
same,IC50,[23],722 nM

# Reference: patent US9012420B2, “Aptamer for chymase, and use thereof” (Ribomic Inc., priority 2009, dated 2015)
